This note sets out measurements from article PMC10785194.

Holding throughout (conditions): control: untreated
One data set can be described thus: immunoblot, C4-2B. For orientation: In western blotting, separated proteins are transferred to a membrane and probed.
A short description of data set [1]: immunofluorescence, nuclear AR, C4-2B.
The nature of data set [2]: CHX chase, AR protein stability by immunoblot.

B1: androgen receptor (AR): OSMI-1 (protein)
parent chain: MEVQLGLGRVYPRPPSKTYRGAFQNLFQSVREVIQNPGPRHPEAASAAPPGASLLLLQQQQQQQQQQQQQQQQQQQQQQQETSPRQQQQQQGEDGSPQAHRRGPTGYLVLDEEQQPSQPQSALECHPERGCVPEPGAAVAASKGLPQQLPAPPDEDDSAAPSTLSLLGPTFPGLSSCSADLKDILSEASTMQLLQQQQQEAVSEGSSSGRAREASGAPTSSKDNYLGGTSTISDNAKELCKAVSVSMGLGVEALEHLSPGEQLRGDCMYAPLLGVPPAVRPTPCAPLAECKGSLLDDSAGKSTEDTAEYSPFKGGYTKGLEGESLGCSGSAAAGSSGTLELPSTLSLYKSGALDEAAAYQSRDYYNFPLALAGPPPPPPPPHPHARIKLENPLDYGSAWAAAAAQCRYGDLASLHGAGAAGPGSGSPSAAASSSWHTLFTAEEGQLYGPCGGGGGGGGGGGGGGGGGGGGGGGEAGAVAPYGYTRPPQGLAGQESDFTAPDVWYPGGMVSRVPYPSPTCVKSEMGPWMDSYSGPYGDMRLETARDHVLPIDYYFPPQKTCLICGDEASGCHYGALTCGSCKVFFKRAAEGKQKYLCASRNDCTIDKFRRKNCPSCRLRKCYEAGMTLGARKLKKLGNLKLQEEGEASSTTSPTEETTQKLTVSHIEGYECQPIFLNVLEAIEPGVVCAGHDNNQPDSFAALLSSLNELGERQLVHVVKWAKALPGFRNLHVDDQMAVIQYSWMGLMVFAMGWRSFTNVNSRMLYFAPDLVFNEYRMHKSRMYSQCVRMRHLSQEFGWLQITPQEFLCMKALLLFSIIPVDGLKNQKFFDELRMNYIKELDRIIACKRKNPTSCSRRFYQLTKLLDSVQPIARELHQFTFDLLIKSHMVSVDFPEMMAEIISVQVPKILSGKVKPIYFHTQ
As to B1, the “other: AR S81 phosphorylation” value in the data set “immunoblot, C4-2B” (glycan lost) is given as “increases”. The localisation_or_trafficking result in data set [1] (glycan lost) is reported as “increases”. The degradation_or_half_life entry in data set [2] (glycan lost) is given as “increases”.

B2: androgen receptor (AR): Thiamet G (protein)
parent chain: B1 parent chain
For the protein B2, in “immunoblot, C4-2B” (glycan gained), the “other: AR S81 phosphorylation” value was “decreases”. For the same protein, the localisation_or_trafficking result in data set [1] (glycan gained) was “decreases”. Besides, in data set [2] (glycan gained), the degradation_or_half_life result is “decreases”.
